Laboratory results: publication PMC8161422
Blank lines part the entries; values can stand above or below the substance they belong to.

What was measured:
[1] = target: alpha-synuclein 5Q mutant E114Q;E123Q;E126Q;E137Q;E139Q (UniProt P37840); assay: pH electrode (Orion Star A211 meter, Orion ROSS combination micro electrode) before and after fibril formation; closed-system proton balance; conditions: fibril formation at 37 °C, temperature of the pH reading not stated, no added salt (pure water; protein and its counter-ions only), none (Milli-Q water; the protein is the only buffer)
His50 = His50 (UniProt position 50, KEGVVHGVATV); assay: NMR; conditions: No added salt is implied by the Table 1 footnote 'in absence of salt'. Ionic strength is otherwise not stated.; 20 mM sodium phosphate buffer, pH 7 (as described in this article); protein 250 µM; free monomer, intrinsically disordered, no fibrils; cited from earlier work
[2] = target: alpha-synuclein, wild type (UniProt P37840); assay: NMR pH titration (quoted from Croke et al. 2011, ref 30); Asp and Glu values averaged by the present authors; conditions: in absence of salt (Table 1 footnote d), not stated for the Asp/Glu values ('in buffer'); cited from earlier work
[3] = target: alpha-synuclein, wild type (UniProt P37840); assay: pH electrode (Orion Star A211 meter, Orion ROSS combination micro electrode) before and after fibril formation; closed-system proton balance; conditions: fibril formation at 37 °C, temperature of the pH reading not stated, no added salt (pure water; protein and its counter-ions only), none (Milli-Q water; the protein is the only buffer)
[4] = target: alpha-synuclein, wild type (UniProt P37840); assay: NMR pH titration (quoted from Croke et al. 2011, ref 30); conditions: 20 mM sodium phosphate buffer, pH 7 (so in the source); cited from earlier work

apparent pKa(ave) of acidic groups in fibrils, average over the remaining acidic groups (five fewer than wild type) of the 5Q mutant ([1]; pH 6.6): 4.7 pH units
Substance: alpha-synuclein 5Q mutant E114Q;E123Q;E126Q;E137Q;E139Q
change of sample pH on fibril formation ([1]; pH 6.4-6.6): pH increases by only 0.2 units, from pH 6.4 (monomer) to pH 6.6 (fibrils), 20 uM in water

Substance: alpha-synuclein (Homo sapiens)
pKa (His50): 6.78

protons taken up per monomer during fibril formation ([3]; pH 5.6-6.5): about 2 protons per monomer
apparent pKa(ave) of acidic groups in fibrils, average over all acidic groups (Asp, Glu and the C-terminus) of alpha-synuclein ([3]; pH 6.5): 5.4 pH units
Substance: alpha-synuclein, wild type
pKa in C-terminal tail of α-synuclein (Asp), average of Asp residues in the C-terminal tail of monomeric alpha-synuclein [2]: 4.2 pH units
pKa in C-terminal tail of α-synuclein (Glu), average of Glu residues in the C-terminal tail of monomeric alpha-synuclein [2]: 4.6 pH units
pKa in N-terminal and NAC region of α-synuclein (Asp), average of Asp residues in the N-terminal and NAC regions (first 100 residues) of monomeric alpha-synuclein [2]: 3.6 pH units
pKa in N-terminal and NAC region of α-synuclein (Glu), average of Glu residues in the N-terminal and NAC regions (first 100 residues) of monomeric alpha-synuclein [2]: 4.2 pH units
pKa in full length α-synuclein monomer (Asp), average of all Asp residues of monomeric alpha-synuclein [2]: 4 pH units
pKa in full length α-synuclein monomer (Glu), average of all Glu residues of monomeric alpha-synuclein [2]: 4.4 pH units
change of sample pH on fibril formation ([3]; pH 5.6-6.5): pH increases by 0.9 units, from pH 5.6 (monomer) to pH 6.5 (fibrils), 20 uM in water
pKa, His50 of alpha-synuclein (monomer) [4]: 6.78 pH units
